Data published in patent US20200276294, “Methods and Compositions for Activation of Innate Immune Responses Through RIG-I Like Receptor Signaling” (University of Washington through its Center for …, published 2020).
Positions count from the first letter of the chain named.

Columns and labels:
RIG-I (full-length) [1] = target: T1, RIG-I (full-length) (UniProt O95786 O95786:1-925); experiment: EMSA; no binding at 0-10 pmol RIG-I; limited RD protection in trypsin assay; details: stem-loops
T1 sequence: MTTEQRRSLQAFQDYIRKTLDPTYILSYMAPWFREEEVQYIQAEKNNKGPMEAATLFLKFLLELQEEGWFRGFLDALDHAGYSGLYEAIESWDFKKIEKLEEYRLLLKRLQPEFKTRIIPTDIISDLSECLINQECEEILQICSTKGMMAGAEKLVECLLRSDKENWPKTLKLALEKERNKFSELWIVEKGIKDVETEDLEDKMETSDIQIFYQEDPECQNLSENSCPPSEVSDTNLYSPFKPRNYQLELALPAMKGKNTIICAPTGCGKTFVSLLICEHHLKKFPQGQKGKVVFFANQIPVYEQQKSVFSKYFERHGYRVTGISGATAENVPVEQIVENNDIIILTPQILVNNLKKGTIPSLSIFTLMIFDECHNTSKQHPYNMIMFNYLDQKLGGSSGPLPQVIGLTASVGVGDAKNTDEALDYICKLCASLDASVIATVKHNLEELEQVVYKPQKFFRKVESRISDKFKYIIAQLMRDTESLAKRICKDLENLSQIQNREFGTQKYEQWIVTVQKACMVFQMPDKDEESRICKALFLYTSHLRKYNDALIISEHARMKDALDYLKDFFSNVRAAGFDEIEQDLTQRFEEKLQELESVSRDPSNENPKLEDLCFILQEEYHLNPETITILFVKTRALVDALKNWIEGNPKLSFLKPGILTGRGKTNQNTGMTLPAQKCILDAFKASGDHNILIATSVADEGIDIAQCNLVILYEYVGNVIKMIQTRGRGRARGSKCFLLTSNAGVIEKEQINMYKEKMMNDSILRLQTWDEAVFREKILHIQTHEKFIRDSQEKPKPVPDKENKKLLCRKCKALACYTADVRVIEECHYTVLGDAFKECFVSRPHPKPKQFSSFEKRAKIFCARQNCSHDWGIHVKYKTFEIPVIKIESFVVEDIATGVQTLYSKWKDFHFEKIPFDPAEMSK

RIG-I (full-length) [2] = target: T1, RIG-I (full-length); experiment: footprint; limited trypsin proteolysis, RD and helicase+CARDs protected; AMP-PNP
RIG-I (full-length) [3] = target: T1, RIG-I (full-length); experiment: EMSA; EC50 over all constructs 2.28-7.31 pmol, individual value in figure only; high signaling
RIG-I (full-length) [4] = target: T1, RIG-I (full-length); experiment: EMSA; EC10 1.42 pmol RIG-I; >50% of RNA bound at 8 pmol; 10 pmol RNA, 20 mM Tris pH 8.0, 1.5 mM MgCl2, 37 C; details: stem-loops
RIG-I (full-length) [5] = target: T1, RIG-I (full-length); experiment: footprint; limited trypsin proteolysis, RD and helicase+CARDs protected; EMSA not possible
Protocol: RIG-I is maintained in an auto-repressed conformation in uninfected cells where the CARDs interact with either the C-terminal repressor domain (RD), the helicase insertion domain (Hel2i), or both domains. […] To further assess RNA interactions with RIG-I, and to determine how HCV PAMP RNA interacts with the helicase domain and RD of RIG-I, limited-trypsin proteolysis of RIG-I/RNA complexes were conducted for nine RNA constructs selected to represent a range of PAMP activity (FIG. 3). RIG-I is highly sensitive to trypsin proteolysis in the absence of PAMP RNA; however, upon binding to an RNA ligand RIG-I undergoes conformational changes that protect the RD and other RNA-bound domains from trypsin digestion.
Various amounts of RNA (0-10 pmol) were mixed with 30 pmol purified RIG-I protein, 2 μl of 5× reaction buffer (20 mM Tris-HCl, pH 8.0; 1.5 mM MgCl₂; 1.5 mM DTT; 70 mM KCl), 0.67 μl AMP-PNP (10 mg/ml), and nuclease-free water up to 10 μl total volume. Reactions were incubated for 5 minutes at room temperature. […] SDS-PAGE Laemmli sample buffer (Bio-Rad) was then added to the samples and reaction products were analyzed by SDS-PAGE followed by silver stain using the SilverQuest silver staining kit (Invitrogen) as per the manufacturer's instructions.

B1: X-region (ssRNA)
RNA: GGUGGCUCCAUCUUAGCCCUAGUCACGGCUAGCUGUGAAAGGUCCGUGAGCCGCUUGACUGCAGAGAGUGCUGAUACUGGCCUCUCUGCAGAUCAAGU
modifications: 5'-triphosphate
binding result (RIG-I (full-length) [1]): no binding

B2: JFH1 pU/UC (ssRNA)
RNA: ACUGUUCCUUUUUUUUUUUUUUUUUUUUUUUUUUUUUUUUUUUUUUUUUUUCUUUUUUUUUUUUUUCCCUCUUUCUUCCCUUCUCAUCUUAUUCUACUUUCUUUCUU
modifications: 5'-triphosphate; three G at 5' end
binding result (RIG-I (full-length) [2]): binds

B3: U17core (ssRNA)
RNA: GGCCAUCCUGUUUUUUUCCCUUUUUUUUUUUCUUUUUUUUUUUUUUUUUCUCCUUUUUUUUUCCUCUUUUUUUCCUUUUCUUUCCUUUCCCCCCCCCCCCCCCCC
modifications: 5'-triphosphate; three G at 5' end
binding result (RIG-I (full-length) [2]): binds

B4: Con1 pU/UC (ssRNA)
RNA: GGCCAUCCUGUUUUUUUCCCUUUUUUUUUUUCUUUUUUUUUUUUUUUUUUUUUUUUUUUUUUUUUUCUCCUUUUUUUUUCCUCUUUUUUUCCUUUUCUUUCCUUU
modifications: 5'-triphosphate; three G at 5' end
binding result (RIG-I (full-length) [3]): binds

B5: X-region-U34 (ssRNA)
RNA: GGGUGGCUCCAUCUUAGCCCUAGUCACGGCUAGCUGUGAAAGGUCCGUGAGCUUUUUUUUUUUUUUUUUUUUUUUUUUUUUUUUUUCGCUUGACUGCAGAGAGUGCUGAUACUGGCCUCUCUGCAGAUCAAGU
modifications: 5'-triphosphate
EC50 (RIG-I (full-length) [4]): < 8 pmol

B6: poly-U 62-C (ssRNA)
RNA: UUUUUUUUUUUUUUUUUUUUUUUUUUUUUUUUUUUUUUUUUUUUCUUUUUUUUUUUUUUUUU
modifications: 5'-triphosphate; three G at 5' end
binding result (RIG-I (full-length) [2]): binds

B7: poly-U 62 (ssRNA)
RNA: B6 RNA with C45U
modifications: 5'-triphosphate; three G at 5' end
binding result (RIG-I (full-length) [5]): binds
